Measurements published in IntAct's records for PubMed 14673118.

B1: Thioredoxin (Synechocystis sp. (strain PCC 6803 / Kazusa)), P52231 (parent)
chain: MSATPQVSDASFKEDVLDSELPVLVDFWAPWCGPCRMVAPVVDEISQQYEGKVKVVKLNTDENPNTASQYGIRSIPTLMIFKGGQRVDMVVGAVPKTTLASTLEKYL
partner: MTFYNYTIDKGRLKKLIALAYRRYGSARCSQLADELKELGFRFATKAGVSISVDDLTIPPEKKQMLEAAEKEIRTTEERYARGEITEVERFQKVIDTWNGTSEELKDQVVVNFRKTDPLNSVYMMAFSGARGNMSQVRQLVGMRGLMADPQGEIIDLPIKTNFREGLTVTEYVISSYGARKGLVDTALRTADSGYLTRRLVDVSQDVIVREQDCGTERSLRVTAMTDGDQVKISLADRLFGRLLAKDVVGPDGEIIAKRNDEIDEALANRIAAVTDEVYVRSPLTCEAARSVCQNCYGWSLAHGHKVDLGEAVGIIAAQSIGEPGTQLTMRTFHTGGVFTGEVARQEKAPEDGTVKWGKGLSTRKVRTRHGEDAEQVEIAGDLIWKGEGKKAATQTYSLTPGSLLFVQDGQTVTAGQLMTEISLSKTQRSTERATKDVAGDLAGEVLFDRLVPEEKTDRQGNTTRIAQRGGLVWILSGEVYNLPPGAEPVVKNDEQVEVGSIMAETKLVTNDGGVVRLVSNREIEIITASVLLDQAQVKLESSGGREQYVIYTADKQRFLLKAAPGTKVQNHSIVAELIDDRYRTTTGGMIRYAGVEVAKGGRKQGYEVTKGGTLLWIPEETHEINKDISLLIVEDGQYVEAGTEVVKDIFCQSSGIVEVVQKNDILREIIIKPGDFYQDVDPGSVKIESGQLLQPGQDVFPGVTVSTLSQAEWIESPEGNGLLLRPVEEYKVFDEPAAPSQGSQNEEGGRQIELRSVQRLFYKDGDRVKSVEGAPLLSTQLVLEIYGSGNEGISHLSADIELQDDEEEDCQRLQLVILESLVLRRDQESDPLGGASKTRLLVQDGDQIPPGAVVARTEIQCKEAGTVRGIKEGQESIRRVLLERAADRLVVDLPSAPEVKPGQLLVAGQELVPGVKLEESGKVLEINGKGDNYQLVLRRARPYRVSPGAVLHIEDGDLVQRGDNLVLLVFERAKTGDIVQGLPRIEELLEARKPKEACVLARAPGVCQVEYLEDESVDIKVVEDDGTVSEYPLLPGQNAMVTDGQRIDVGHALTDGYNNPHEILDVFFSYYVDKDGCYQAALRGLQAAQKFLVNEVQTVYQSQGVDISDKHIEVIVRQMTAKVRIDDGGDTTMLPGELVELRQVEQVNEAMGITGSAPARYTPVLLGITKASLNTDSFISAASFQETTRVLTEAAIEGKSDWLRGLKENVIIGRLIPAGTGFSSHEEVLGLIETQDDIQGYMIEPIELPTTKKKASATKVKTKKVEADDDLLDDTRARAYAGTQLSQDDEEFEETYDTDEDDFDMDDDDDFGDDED
B2: Thioredoxin (Synechocystis sp. (strain PCC 6803 / Kazusa)), P52231 (parent)
chain: B1 chain
partner: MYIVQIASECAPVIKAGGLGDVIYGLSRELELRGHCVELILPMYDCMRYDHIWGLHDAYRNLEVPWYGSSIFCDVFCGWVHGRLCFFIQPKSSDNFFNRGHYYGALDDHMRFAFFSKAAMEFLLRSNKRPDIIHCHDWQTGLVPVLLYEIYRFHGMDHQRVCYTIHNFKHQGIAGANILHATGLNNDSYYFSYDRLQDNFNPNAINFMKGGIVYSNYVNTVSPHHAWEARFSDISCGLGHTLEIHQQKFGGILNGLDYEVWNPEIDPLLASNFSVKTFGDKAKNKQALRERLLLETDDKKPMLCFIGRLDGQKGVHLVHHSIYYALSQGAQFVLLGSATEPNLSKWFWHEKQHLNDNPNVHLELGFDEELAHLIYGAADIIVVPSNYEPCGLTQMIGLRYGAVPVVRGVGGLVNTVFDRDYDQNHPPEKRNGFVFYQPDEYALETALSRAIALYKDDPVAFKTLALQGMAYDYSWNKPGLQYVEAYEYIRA
B3: Thioredoxin (Synechocystis sp. (strain PCC 6803 / Kazusa)), P52231 (parent)
chain: B1 chain
partner: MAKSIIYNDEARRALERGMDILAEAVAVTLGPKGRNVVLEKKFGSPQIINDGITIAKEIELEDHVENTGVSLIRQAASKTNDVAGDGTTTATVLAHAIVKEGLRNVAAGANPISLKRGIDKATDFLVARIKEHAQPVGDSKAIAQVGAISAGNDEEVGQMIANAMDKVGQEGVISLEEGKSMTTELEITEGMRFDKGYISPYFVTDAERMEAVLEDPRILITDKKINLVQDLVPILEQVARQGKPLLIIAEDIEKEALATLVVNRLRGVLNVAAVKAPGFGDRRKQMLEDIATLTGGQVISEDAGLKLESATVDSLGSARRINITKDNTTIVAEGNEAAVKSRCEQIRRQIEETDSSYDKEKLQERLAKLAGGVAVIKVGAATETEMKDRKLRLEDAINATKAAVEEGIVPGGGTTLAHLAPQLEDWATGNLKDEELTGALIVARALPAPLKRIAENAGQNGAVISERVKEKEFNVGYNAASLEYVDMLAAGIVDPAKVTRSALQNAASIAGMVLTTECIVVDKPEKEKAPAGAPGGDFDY
B4: Thioredoxin (Synechocystis sp. (strain PCC 6803 / Kazusa)), P52231 (parent)
chain: B1 chain
partner: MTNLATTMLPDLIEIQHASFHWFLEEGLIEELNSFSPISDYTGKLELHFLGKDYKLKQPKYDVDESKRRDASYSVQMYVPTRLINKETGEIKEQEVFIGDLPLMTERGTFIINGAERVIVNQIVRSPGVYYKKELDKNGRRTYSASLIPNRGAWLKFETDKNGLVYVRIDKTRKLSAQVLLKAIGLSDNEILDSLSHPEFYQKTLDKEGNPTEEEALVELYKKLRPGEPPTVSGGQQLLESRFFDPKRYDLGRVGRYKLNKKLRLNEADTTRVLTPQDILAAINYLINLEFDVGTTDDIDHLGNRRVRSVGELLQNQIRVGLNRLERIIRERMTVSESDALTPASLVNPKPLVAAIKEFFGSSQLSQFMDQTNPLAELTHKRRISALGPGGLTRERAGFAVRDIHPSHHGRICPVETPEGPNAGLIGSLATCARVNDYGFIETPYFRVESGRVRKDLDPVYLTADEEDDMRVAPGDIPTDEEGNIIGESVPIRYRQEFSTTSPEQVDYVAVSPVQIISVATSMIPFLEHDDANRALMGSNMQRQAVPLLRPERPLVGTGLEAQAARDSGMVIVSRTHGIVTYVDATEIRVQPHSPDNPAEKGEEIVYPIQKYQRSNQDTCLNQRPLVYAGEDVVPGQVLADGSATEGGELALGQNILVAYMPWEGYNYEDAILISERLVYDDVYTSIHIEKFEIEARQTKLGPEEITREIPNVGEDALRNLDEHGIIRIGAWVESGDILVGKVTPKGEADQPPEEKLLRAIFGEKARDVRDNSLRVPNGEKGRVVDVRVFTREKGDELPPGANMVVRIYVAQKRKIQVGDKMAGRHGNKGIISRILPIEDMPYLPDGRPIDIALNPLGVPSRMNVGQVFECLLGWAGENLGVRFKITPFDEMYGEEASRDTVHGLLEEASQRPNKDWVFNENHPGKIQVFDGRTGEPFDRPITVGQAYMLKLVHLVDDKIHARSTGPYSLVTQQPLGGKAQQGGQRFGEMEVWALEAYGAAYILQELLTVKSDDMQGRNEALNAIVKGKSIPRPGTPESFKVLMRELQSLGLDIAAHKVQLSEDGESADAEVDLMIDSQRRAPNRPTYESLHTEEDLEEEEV
B5: Thioredoxin (Synechocystis sp. (strain PCC 6803 / Kazusa)), P52231 (parent)
chain: B1 chain
partner: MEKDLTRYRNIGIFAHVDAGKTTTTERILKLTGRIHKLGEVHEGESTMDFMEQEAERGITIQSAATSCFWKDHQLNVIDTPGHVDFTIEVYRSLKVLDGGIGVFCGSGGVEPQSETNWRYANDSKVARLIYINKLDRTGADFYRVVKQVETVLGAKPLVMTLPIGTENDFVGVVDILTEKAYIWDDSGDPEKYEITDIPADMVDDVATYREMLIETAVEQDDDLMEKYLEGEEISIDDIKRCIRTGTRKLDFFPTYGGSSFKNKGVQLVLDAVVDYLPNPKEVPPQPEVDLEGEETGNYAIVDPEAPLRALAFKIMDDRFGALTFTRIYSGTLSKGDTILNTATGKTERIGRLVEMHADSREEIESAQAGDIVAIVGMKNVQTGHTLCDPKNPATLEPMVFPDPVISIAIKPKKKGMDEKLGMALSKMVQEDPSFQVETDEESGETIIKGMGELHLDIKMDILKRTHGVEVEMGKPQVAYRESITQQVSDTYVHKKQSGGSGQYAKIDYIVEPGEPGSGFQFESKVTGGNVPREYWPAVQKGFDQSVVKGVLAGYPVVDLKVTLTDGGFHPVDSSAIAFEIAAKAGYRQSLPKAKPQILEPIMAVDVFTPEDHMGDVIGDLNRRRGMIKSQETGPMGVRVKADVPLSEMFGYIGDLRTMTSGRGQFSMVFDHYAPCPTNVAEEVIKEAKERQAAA

Variants of: B1
Conditions: with rpoc2_syny3 rpoC2, P73334

| Variant | effect of a mutation on the interaction |
| --- | --- |
| MSATPQVSDASFKEDVLDSELPVLVDFWAPWCGPSRMVAPVVDEISQQYEGKVKVVKLNTDENPNTASQYGIRSIPTLMIFKGGQRVDMVVGAVPKTTLASTLEKYL | increasing interaction |

Variants of: B2
Conditions: with glga2_syny3 glgA2, P72623

| Variant | effect of a mutation on the interaction |
| --- | --- |
| MSATPQVSDASFKEDVLDSELPVLVDFWAPWCGPSRMVAPVVDEISQQYEGKVKVVKLNTDENPNTASQYGIRSIPTLMIFKGGQRVDMVVGAVPKTTLASTLEKYL | increasing interaction |

Variants of: B3
Conditions: with ch601_syny3 groEL1, Q05972

| Variant | effect of a mutation on the interaction |
| --- | --- |
| MSATPQVSDASFKEDVLDSELPVLVDFWAPWCGPSRMVAPVVDEISQQYEGKVKVVKLNTDENPNTASQYGIRSIPTLMIFKGGQRVDMVVGAVPKTTLASTLEKYL | increasing interaction |

Variants of: B4
Conditions: with rpob_syny3 rpoB

| Variant | effect of a mutation on the interaction |
| --- | --- |
| MSATPQVSDASFKEDVLDSELPVLVDFWAPWCGPSRMVAPVVDEISQQYEGKVKVVKLNTDENPNTASQYGIRSIPTLMIFKGGQRVDMVVGAVPKTTLASTLEKYL | increasing interaction |

Variants of: B5
Conditions: with efg1_syny3 fusA

| Variant | effect of a mutation on the interaction |
| --- | --- |
| MSATPQVSDASFKEDVLDSELPVLVDFWAPWCGPSRMVAPVVDEISQQYEGKVKVVKLNTDENPNTASQYGIRSIPTLMIFKGGQRVDMVVGAVPKTTLASTLEKYL | increasing interaction |
